{
  "source": "patent US12410262B2",
  "about": "“Peptide conjugates of cytotoxins as therapeutics” (Cybrexa 2, Inc., priority 2019, dated 2025)",
  "key": {"[1]": {"assay": "Bone marrow toxicity study in a mouse model", "format": "in vivo, athymic nude Foxn^nu mice", "details": "2.6 and 5.2 μmoles/kg (10, 20 mg/kg) IP once daily for 4 days", "description": "Six-week-old female athymic nude Foxn^nu mice were obtained from Taconic Labs (Cat #NCRNU-F) and were housed 5 per cage on Alpha-Dri bedding in a disposable caging system (Innovive). Human HCT116 cancer cells derived from colorectal carcinoma were diluted 1:1 in Phenol Red-free Matrigel and subcutaneously implanted into the left flank of each mouse at a density of 2.5×10^6 cells in 100 μL. When xenografts reached a minimal volume of 200 mm^3, mice were administered intraperitoneal doses of vehicle or 2.6 or 5.2 μmoles/kg of either unconjugated exatecan (equivalent to 1.15 or 2.3 mg/kg exatecan, respectively) or Compound 11 (equivalent to 10 or 20 mg/kg Compound 11, respectively). Compounds were administered once daily for 4 days.\nTumor bearing mice were euthanized by cervical dislocation 6 hours after the last dose. Femurs were removed, and bone marrow was extruded into 50 mL conical tubes by flushing the bones with a 23-gauge needle fitted on a 5 cc syringe containing PBS+2% fetal bovine serum. Bone marrow was homogenized by gentle pipetting and filtered through 100 μm nylon mesh filters and cells were pelleted by centrifugation at 1200 rpm for 5 minutes at 4° C. Red blood cells were lysed with 3 mL of lysis buffer for 2 minutes at room temperature. […] Cell pellets were suspended in 5 mL of PBS and cell count was assessed by trypan blue exclusion. […]"}, "[2]": {"assay": "Gastric toxicity study in a mouse model", "format": "in vivo, athymic nude Foxn^nu mice", "details": "5.2 μmoles/kg (20 mg/kg) IP once daily for 4 days", "description": "Six-week-old female athymic nude Foxn^nu mice were obtained from Taconic Labs (Cat #NCRNU-F) and were housed 5 per cage on Alpha-Dri bedding in a disposable caging system (Innovive). Human HCT116 cells derived from colorectal carcinoma were diluted 1:1 in Phenol Red-free Matrigel and subcutaneously implanted into the left flank of each mouse at a density of 2.5×10^6 cells in 100 μL. When xenografts reached a minimal volume of 300 mm^3, mice were administered intraperitoneal doses of vehicle, or 5.2 μmoles/kg of either unconjugated exatecan (equivalent to 2.3 mg/kg exatecan) or Compound 11 (equivalent to 20 mg/kg Compound 11). Compounds were administered once daily for 4 days. At 6 hours after administration of the last dose, mice were euthanized by cervical dislocation and gross necropsy was conducted. Photographs were taken of the stomachs both in situ and ex vivo."}, "HCT116": {"test_system": "HCT116", "assay": "cells", "format": "cell-based, human", "details": "96 h", "method_in_brief": "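DLD-1 WT (2500/well), FaDu and HeLa (5000/well) and HCT116 (3000/well) were grown in 10% FBS media and dosed in triplicate 24 h after plating. After 96 h of drug exposure at 37 °C, cells were fixed, Hoechst-stained and counted by imaging; percent growth delay was calculated versus untreated controls.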"}, "[3]": {"assay": "Glutathione cleavage study", "format": "in vitro ADME", "details": "Tris buffer with 10 mM glutathione, Glutathione Challenge (10 mM), 100 μM conjugate, Tris pH 7.5, 37° C.", "method_in_brief": "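Conjugate stocks at 20 mM in 100% DMSO were diluted in 100 mM Tris, pH 7.5, to a final 100 μM. Freshly made glutathione was added to 10 mM, and samples were incubated at 37° C. for up to 24 hrs. Samples were extracted with phosphoric acid and acetonitrile/0.1% TFA, centrifuged, and analyzed by HPLC, with peak areas compared to the time-0 conjugate peak.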"}, "HCT116 xenografts": {"test_system": "HCT116 xenografts", "assay": "Tumor and bone marrow pharmacokinetics in a mouse model", "format": "in vivo, athymic nude Foxn^nu mice", "details": "mouse bearing HCT116 xenograft, single IP dose 10 mg/kg", "description": "Six-week-old female athymic nude Foxn^nu mice were obtained from Taconic Labs (Cat #NCRNU-F) and were housed 5 per cage on Alpha-Dri bedding in a disposable caging system (Innovive). Human HCT116 cancer cells derived from colorectal carcinoma were diluted 1:1 in Phenol Red-free Matrigel and subcutaneously implanted into the left flank of each mouse at a density of 2.5×10^6 cells in 100 μL. When xenografts reached a minimal volume of 300 mm^3, mice were administered a single intraperitoneal injection of 10 mg/kg Compound 11 prepared in a vehicle of 5% mannitol in citrate. Tumor and bone marrow samples were collected from fed, anesthetized mice at 1, 2, 4, 8, 16, 24, 32 and 48 hours after compound administration. Total peptide concentrations in tumor and bone marrow were determined via ELISA.\n96-well plates were coated with 100 μL/well of 0.1 μM BSA-labelled peptide prepared in 0.2 M Carbonate-Bicarbonate Buffer, pH 9.4 and incubated overnight at 4° C. Plates were washed 4× with an ELISA wash buffer (PBS+0.05% Tween 20), incubated for 2 hours at room temperature with Blocking Buffer (PBS+5% dry milk+0.05% Tween 20) (300 μL/well) and washed again 4× with ELISA wash buffer. […] Luminescence was read from the plate on a BioTek Cytation 5 plate reader."}},
  "data": [
    {"smiles": "CC[C@@]1(O)C(=O)OCc2c1cc1n(c2=O)Cc2c-1nc1cc(F)c(C)c3c1c2[C@@H](NC(=O)O[C@H]1CCCC[C@@H]1SSC[C@H](NC(=O)[C@H](Cc1c[nH]c2ccccc12)NC(=O)[C@H](CC(C)C)NC(=O)[C@H](CC(C)C)NC(=O)[C@H](CC(=O)O)NC(=O)[C@H](CC(C)C)NC(=O)[C@H](CC(C)C)NC(=O)[C@H](CC(C)C)NC(=O)[C@@H](NC(=O)[C@H](CC(=O)O)NC(=O)[C@@H](NC(=O)[C@@H]1CCCN1C(=O)[C@H](Cc1ccccc1)NC(=O)[C@H](CC(C)C)NC(=O)[C@H](CC(C)C)NC(=O)[C@H](CC(=O)O)NC(=O)[C@H](CC(C)C)NC(=O)[C@H](Cc1ccc(O)cc1)NC(=O)[C@H](C)NC(=O)[C@H](CCCNC(=N)N)NC(=O)[C@H](Cc1c[nH]c2ccccc12)NC(=O)[C@@H]1CCCN1C(=O)[C@H](CC(N)=O)NC(=O)[C@H](CCC(N)=O)NC(=O)[C@H](CC(=O)O)NC(=O)[C@H](CC(=O)O)NC(=O)[C@H](C)N)[C@@H](C)O)[C@@H](C)O)C(=O)NCC(=O)O)CC3", "note": "[Compound 11]", "values": [
      {"measurement": "bone marrow toxicity (total bone marrow counts from femurs)", "setting": "[1]", "result": "did not display the bone marrow toxicity"},
      {"measurement": "gastric toxicity (stomachs in situ and ex vivo)", "setting": "[2]", "result": "did not display the gastric toxicity"},
      {"measurement": "IC50", "setting": "HCT116", "result": 0.0226, "unit": "µM"},
      {"measurement": "remaining at 4 h, 100 µM", "setting": "[3]; 4 h", "result": 50.1, "unit": "%"},
      {"measurement": "remaining at 24 h, 100 µM", "setting": "[3]; 24 h", "result": 10.2, "unit": "%"},
      {"measurement": "peptide concentration in tumor and bone marrow (tumor targeting)", "setting": "HCT116 xenografts", "result": "effectively targets tumors"}
    ]}
  ]
}
